The chains are these.
B1: Q9NR48 1976-1990 (peptide)
chain: REKKPPRPPKKKYQ
B2: Q96T37 35-48 (peptide)
chain: RGDDLRRPATMKGK
B3: Q16360 129-142 (peptide)
chain: RGAQLRRPRHSHPT
B4: Q92797 568-581 (peptide)
chain: RDLIFKRPSRQFQY
B5: Q9Y6K5 932-945 (peptide)
chain: RDFIISRPTKLKSL
B6: Q9H278 225-238 (peptide)
chain: RDAFLKRPISNKYM
B7: P48634 419-433 (peptide)
chain: RGGPPSKPPAPEDE
B8: Q9HCU4 2874-2888 (peptide)
chain: RGGPPPRPPPRQSL
B9: Q92619 87-100 (peptide)
chain: ATGTLKRPTSLSRH
B10: P13674 520-533 (peptide)
chain: RGQEFRRPSTLSEL
B11: P08922 650-663 (peptide)
chain: RASSPKRPGPWSEP
B12: Q96RS3 192-205 (peptide)
chain: RAITFRRPSRVHYY
B13: O43184 749-763 (peptide)
chain: RSVRPSRPPRGFQP
B14: P39030 37-50 (peptide)
chain: RAPRPTRPDKARRL
B15: Q9NR60 64-77 (peptide)
chain: RAQRIRRPFRPILN
B16: O95049 627-640 (peptide)
chain: REASFKRPVVILGP
B17: P17036 132-145 (peptide)
chain: REVSLKRPLGNSPG
B18: O15350 435-448 (peptide)
chain: ATPLPRRPQPRDLG
B19: Q14152 1235-1248 (peptide)
chain: REDRFRRPRDEGGW
B20: Q96JG1 528-542 (peptide)
chain: RHASPARPPAARSQ
B21: Q96RT6 725-739 (peptide)
chain: RGFLPYRPPRPAFF
B22: Q96LA8 29-42 (peptide)
chain: REAALERPRRTKRE
B23: P20800 107-120 (peptide)
chain: ATFSLRRPWTEAGA
B24: Q9UKM7 224-238 (peptide)
chain: RAEVPTKPPLPPAR
B25: Q9NPY2 259-273 (peptide)
chain: RSSFPVRPPTASTI
B26: Q9GZY5 40-53 (peptide)
chain: RFALFKRPKANGVK
B27: Q9NTH0 93-106 (peptide)
chain: RHLAPNRPSKSRTD
B28: O15350 435-448 (peptide)
chain: ATPLPRRPQPRQFF
B29: Q9NXT9 123-136 (peptide)
chain: RAVDLRRPLLHELL
B30: Q9UDY2 725-738 (peptide)
chain: REAGFKRPVVLFGP
B31: Q13399 123-136 (peptide)
chain: RGAQLRRPRHSHLT
B32: Q9H6X2 550-564 (peptide)
chain: RAPPPSRPPPRPSV
B33: O43561 47-60 (peptide)
chain: RGIQFKRPHTVAPW
B34: P29597 1130-1143 (peptide)
chain: RGERLPRPDKSPSE
B35: Q12879 1300-1313 (peptide)
chain: RELDLSRPSRSISL
B36: Q9H8S7 104-117 (peptide)
chain: RAPSPARPRRPHAS
B37: Q14069 9-23 (peptide)
chain: RAWIPGKPPSPPRG
B38: P36776 15-28 (peptide)
chain: RSWVLRRPMLAAAG

One experiment addresses T1, amphyphisin SH3 (AMPH_HUMAN), P49418.
T1 chain: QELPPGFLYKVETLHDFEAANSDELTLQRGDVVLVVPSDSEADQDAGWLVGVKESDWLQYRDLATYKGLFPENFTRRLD
Briefly: SPOT array.
In turn, B1 yielded a normalised SPOT signal, Boehringer light units (BLU); mean over the file's lines of this peptide of 56.2.
Same read-out and setting: then B2, with 30; and B3, with 53.3.
Still for that read-out and setting: as for B4, the figure is 5070.
The same measure, in the same setting: as for B5, the figure is 108; as for B6, 34.7; as for B7, 38.6.
B8 came in with a normalised SPOT signal, Boehringer light units (BLU); mean over the file's lines of this peptide of 17900.
For the molecule B9, the normalised SPOT signal, Boehringer light units (BLU); mean over the file's lines of this peptide was 32.9.
Same read-out and setting: as for B10, the figure is 38.7; as for B11, 48.7.
Regarding B12, the normalised SPOT signal, Boehringer light units (BLU); mean over the file's lines of this peptide is 708.
On the same count and under the same terms, as for B13, the figure is 12400; as for B14, 219.
The same measure, in the same setting: as for B15, the figure is 180; as for B16, 47.4; as for B17, 39.7.
Still for that read-out and setting: as for B18, the figure is 132.
Consider B19, for which the normalised SPOT signal, Boehringer light units (BLU); mean over the file's lines of this peptide turned out to be 46.
The molecule B20 returned a normalised SPOT signal, Boehringer light units (BLU); mean over the file's lines of this peptide of 434.
In turn, B21 came in with a normalised SPOT signal, Boehringer light units (BLU); mean over the file's lines of this peptide of 7280.
Same read-out and setting: as for B22, the figure is 2500; as for B23, 20.7; as for B24, 8090.
On the same count and under the same terms, as for B25, the figure is 167; as for B26, 19.2.
In turn, B27 showed a normalised SPOT signal, Boehringer light units (BLU); mean over the file's lines of this peptide of 530.
The same measure, in the same setting: as for B28, the figure is 151; as for B29, 114.
Same read-out and setting: then B30, with 24.6; and B31, with 25.3; and B32, with 4340.
On the same count and under the same terms, as for B33, the figure is 35.2; as for B34, 3.2.
Molecule B35 displayed a normalised SPOT signal, Boehringer light units (BLU); mean over the file's lines of this peptide of 3150.
The same measure, in the same setting: then B36, with 6640; and B37, with 1950.
On the same count and under the same terms, then B38, with 19.

Another experiment addresses endophilin SH3 (SH3G2_HUMAN), Q99962. Briefly: SPOT array.
For B1, the normalised SPOT signal, Boehringer light units (BLU); mean over the file's lines of this peptide is 6480.
On the same count and under the same terms, then B2, with 144.
On the same count and under the same terms, then B3, with 40.1; and B4, with 190; and B5, with 182.
For B6, the normalised SPOT signal, Boehringer light units (BLU); mean over the file's lines of this peptide turned out to be 254.
Same read-out and setting: as for B7, the figure is 33.5.
For the molecule B8, the normalised SPOT signal, Boehringer light units (BLU); mean over the file's lines of this peptide was found to be 17200.
Take B9: the normalised SPOT signal, Boehringer light units (BLU); mean over the file's lines of this peptide was 23.6.
The same measure, in the same setting: as for B10, the figure is 158; as for B11, 66.3.
Still for that read-out and setting: as for B12, the figure is 33.9.
Molecule B13 had a normalised SPOT signal, Boehringer light units (BLU); mean over the file's lines of this peptide of 13300.
Molecule B14 gave a normalised SPOT signal, Boehringer light units (BLU); mean over the file's lines of this peptide of 2140.
The same measure, in the same setting: then B15, with 80.9; and B16, with 18.3; and B17, with 55.7.
Same read-out and setting: as for B18, the figure is 6070.
Same read-out and setting: as for B19, the figure is 116; as for B20, 4680.
In turn, B21 displayed a normalised SPOT signal, Boehringer light units (BLU); mean over the file's lines of this peptide of 13700.
Still for that read-out and setting: then B22, with 330; and B23, with 61.3.
The same measure, in the same setting: as for B24, the figure is 2440.
The same measure, in the same setting: then B25, with 3140.
B26 registered a normalised SPOT signal, Boehringer light units (BLU); mean over the file's lines of this peptide of 13.5.
In turn, B27 gave a normalised SPOT signal, Boehringer light units (BLU); mean over the file's lines of this peptide of 257.
Still for that read-out and setting: then B28, with 19900; and B29, with 67.7; and B30, with 23.8.
Molecule B31 came in with a normalised SPOT signal, Boehringer light units (BLU); mean over the file's lines of this peptide of 53.2.
The same measure, in the same setting: then B32, with 11000.
Still for that read-out and setting: as for B33, the figure is 28.6.
Turning to B34, the normalised SPOT signal, Boehringer light units (BLU); mean over the file's lines of this peptide worked out at 116.
B35 yielded a normalised SPOT signal, Boehringer light units (BLU); mean over the file's lines of this peptide of 98.7.
On the same count and under the same terms, then B36, with 2140.
Same read-out and setting: as for B37, the figure is 4770; as for B38, 412.

For the origin of these results see article PMC314469, “Protein Interaction Networks by Proteome Peptide Scanning” (PLoS Biology, 2004).
